Test system: DU-145 tumor xenografts
Experiment: UTMD delivery of Alexa Fluor-His-MDA-7/MB complex to DU-145 xenografts
Assay type: in vivo, mice
Settings: tail vein, ultrasound at left flank tumor (UTMD)
Experimental: DU-145 human prostate cancer cells were established as xenografts in the left flank of nude mice. Alexa Fluor labeled His-MDA-7/MBs complex were injected through the tail vein of nude mice, and sonoporated in the xenograft (DU-145) tumor implanted in the left flank with a portable ultrasound (SonoSite Micro-Maxx US platform) equipped with an L25 linear array transducer set at 0.7 Mechanical Index, 1.8 MPa for 10 min (UTMD approach). The fluorescent image was captured using Xenogen IVIS spectrum. […] Lighter color indicates higher fluorescent intensity.
In addition to delivering therapeutic viruses systemically, we also tested the possibility of using MBs and a UTMD approach to deliver therapeutic proteins in vivo. His tagged MDA-7/IL-24 (His-MDA-7) was purified by using Ni-NTA column chromatography. 1 mg/ml of His-MDA-7 solution was mixed with Alexa Fluor 488 containing 0.1 M Sodium bicarbonate, followed by removal of unincorporated dye by centrifugation using centricon (3 kD cut off MW). Confirmation of labeling of His-MDA-7 (Alexa Fluor-His-MDA-7) was obtained spectroflurometrically based on emission spectra changes. The Alexa Fluor-His-MDA-7 was incubated overnight with MBs and localization of the labeled protein complex in the MBs was monitored by green fluorescence and found to be associated with the lipid shell of the MB (FIG. 3A). […]

B1: Alexa Fluor-His-MDA-7: His tagged MDA-7/IL-24 protein labeled with Alexa Fluor 488, complexed with microbubbles (protein, UniProt Q13007 52-206, looked up)
Interleukin-24: QEFHFGPCQVKGVVPQKLWEAFWAVKDTMQAQDNITSARLLQQEVLQNVSDAESCYLVHTLLEFYLKTVFKNYHNRTVEVRTLKSFSTLANNFVLIVSQLQPSQENEMFSIRDSAHRRFLLFRRAFKQLDVEAALTKALGEVDILLTWMQKFYKL
modifications: His tag, Alexa Fluor 488, microbubble complex
notes: His tagged MDA-7/IL-24 protein labeled with Alexa Fluor 488, complexed with microbubbles
- localisation of labeled protein (fluorescent image): mostly localized in the left flank where ultrasound was applied
- localisation of labeled protein (fluorescent image) (listed as Alexa Fluor-MDA-7): located predominantly in the tumor in the left flank of mice

From patent US20220218850A1, “Methods and Compositions for Two-Stage Microbubble Delivery of Active Agents” (Virginia Commonwealth University, priority 2021, published 2022)
